# B1: D. mccartyi tRNAGlu-1 (UUC) (structured_RNA)
# RNA: GCCCCCAUCGUCUAGAGGCCCAGGACAGCGGCCUUUCACGCCGUCAACAGGGGUUCGAAUCCCCUUGGGGGUACCA
# Legend:
# Test in all cases: EMSA
# DmcElp3 9-459 = DmcElp3 9-459 (Dehalococcoides mccartyi, UniProt A0A1C7D1B7 9-459)
# [1] = target: DmcElp3 wild type (dimer) (Dehalococcoides mccartyi, UniProt A0A1C7D1B7 1-459)
# [2] = target: DmcElp3 wild type (monomer) (Dehalococcoides mccartyi, UniProt A0A1C7D1B7 1-459)
# DmcElp3 R6A = DmcElp3 R6A (Dehalococcoides mccartyi, UniProt A0A1C7D1B7 1-459, R6A)
# DmcElp3 K2A K3A = DmcElp3 K2A K3A (Dehalococcoides mccartyi, UniProt A0A1C7D1B7 1-459, K2A;K3A)
binder,measurement,setting,value
B1,binding result,DmcElp3 9-459,no binding
same,Kd,[1],~4 µM
same,Kd,[2],~4 µM
same,binding result,DmcElp3 R6A,no binding
same,binding result,DmcElp3 K2A K3A,no binding
